Test results: PMC12217528, “Structural basis of topoisomerase targeting by delafloxacin” (Nature Communications, 2025)

B1: ParC55 breakage-reunion domain of S. pneumoniae topo IV (domain or fragment, Streptococcus pneumoniae)
chain: MSNIQNMSLEDIMGERFGRYSKYIIQDRALPDIRDGLKPVQRRILYSMNKDSNTFDKSYRKSAKSVGNIMGNFHPHGDSSIYDAMVRMSQNWKNREILVEMHGNNGSMDGDPPAAMRYTEARLSEIAGYLLQDIEKKTVPFAWNFDDTEKEPTVLPAAFPNLLVNGSTGISAGYATDIPPHNLAEVIDAAVYMIDHPTAKIDKLMEFLPGPDFPTGAIIQGRDEIKKAYETGKGRVVVRSKTEIEKLKGGKEQIVITEIPYEINKANLVKKIDDVRVNNKVAGIAEVRDESDRDGLRIAIELKKDANTELVLNYLFKYTDLQINYNFNMVAIDNFTPRQVGIVPILSSYIAHRREVILARSRFDKEKAEKRLHIVEGLIRVISILDEVIALIRASENKADAKENLKVSYDFTEEQAEAIVTLQLYRLTNTDVVVLQEEEAELREKIAMLAAIIGDERTMYNLMKKELREVKKKFATPRLSSLEDTAKALE
modifications: Y118 covalently linked to the 5′-phosphate of the cleaved DNA (phosphotyrosyl linkage)
notes: ParC55, the breakage-reunion domain of topoisomerase IV subunit ParC, S. pneumoniae; residues 247-734 of the printed fusion; In the crystals this domain stood on one chain with ParE30, joined through one extra histidine, as the fusion protein m1; also called ParC domains; ParC dimer; source: E. coli BL21(λDE3) pLysS, purified to >95% homogeneity (as part of the ParE30-ParC55 fusion protein)

Experiments:
[1] = target: the molecule itself; assay: crystal structure; ParE30-ParC55 fusion protein (4.5 mg/ml) mixed with 18-mer V-site or E-site duplex DNA at 1:1.2 molar ratio, 2 mM delafloxacin, 10 mM MgCl2; sitting-drop vapour diffusion, 50 mM sodium cacodylate, 62.5 mM KCl, 7.5 mM MgCl2, 2.5% Tacsimate, 5.5–7% isopropanol, pH 6.5, 301 K; V18 with PEGylated graphene nucleant 2.0 Å, V18 and E18 without 2.4 Å
[2] = target: B1; assay: as above; details: both partners purified

Binder | binding result [1] | binding result [2]
B1 | binds | –
ParE30 metal binding TOPRIM domain of S. pneumoniae topo IV (domain or fragment, Streptococcus pneumoniae, residues 2-245 of the printed fusion; In the crystals this domain stood on one chain with ParC55, joined through one extra histidine, as the fusion protein m1; also called ParE TOPRIM domain; ParE domains; source: E. coli BL21(λDE3) pLysS, purified to >95% homogeneity (as part of the ParE30-ParC55 fusion protein)) MKNKKDKGLLSGKLTPAQSKNPAKNELYLVEGDSAGGSAKQGRDRKFQAILPLRGKVINTAKAKMADILKNEEINTMIYTIGAGVGADFSIEDANYDKIIIMTDADTDGAHIQTLLLTFFYRYMRPLVEAGHVYIALPPLYKMSKGKGKKEEVAYAWTDGELEELRKQFGKGATLQRYKGLGEMNADQLWETTMNPETRTLIRVTIEDLARAERRVNVLMGDKVEPRRKWIEDNVKFTLEEATVF | – | binds
